Test [1] has as its target LRP6-mCherry, stably expressed in NCI-H1703 cells (human) (UniProt O75581). Briefly: dual-color axial line-scanning fluorescence cross-correlation spectroscopy (axial lsFCS); two receptors in the plasma membrane of live NCI-H1703 cells stably expressing LRP6-mCherry and transiently xKremen2-eGFP; fractions that co-diffuse from the ratios of cross- and autocorrelation amplitudes.

The target of test [2] is T1, LRP6-mCherry, stably expressed in NCI-H1703 cells (human, UniProt O75581 20-1613).
T1 construct: lipoprotein-receptor related protein 6 (LRP6), human; the ORF of the hLRP6-mCherry fusion inserted into pEF1a-IRES-Neo; Same fusion ORF as m4 and m5; receptor density 45 ± 23 per µm^2; also called hLRP6-mCherry; exogenous LRP6-mCherry; source: NCI-H1703, stably transfected clonal line (pEF1a-hLRP6-mCherry-IRES-Neo, G418 selection), on live cells; not shown: mCherry, C-terminal, kept
T1 sequence (O75581 20-1613): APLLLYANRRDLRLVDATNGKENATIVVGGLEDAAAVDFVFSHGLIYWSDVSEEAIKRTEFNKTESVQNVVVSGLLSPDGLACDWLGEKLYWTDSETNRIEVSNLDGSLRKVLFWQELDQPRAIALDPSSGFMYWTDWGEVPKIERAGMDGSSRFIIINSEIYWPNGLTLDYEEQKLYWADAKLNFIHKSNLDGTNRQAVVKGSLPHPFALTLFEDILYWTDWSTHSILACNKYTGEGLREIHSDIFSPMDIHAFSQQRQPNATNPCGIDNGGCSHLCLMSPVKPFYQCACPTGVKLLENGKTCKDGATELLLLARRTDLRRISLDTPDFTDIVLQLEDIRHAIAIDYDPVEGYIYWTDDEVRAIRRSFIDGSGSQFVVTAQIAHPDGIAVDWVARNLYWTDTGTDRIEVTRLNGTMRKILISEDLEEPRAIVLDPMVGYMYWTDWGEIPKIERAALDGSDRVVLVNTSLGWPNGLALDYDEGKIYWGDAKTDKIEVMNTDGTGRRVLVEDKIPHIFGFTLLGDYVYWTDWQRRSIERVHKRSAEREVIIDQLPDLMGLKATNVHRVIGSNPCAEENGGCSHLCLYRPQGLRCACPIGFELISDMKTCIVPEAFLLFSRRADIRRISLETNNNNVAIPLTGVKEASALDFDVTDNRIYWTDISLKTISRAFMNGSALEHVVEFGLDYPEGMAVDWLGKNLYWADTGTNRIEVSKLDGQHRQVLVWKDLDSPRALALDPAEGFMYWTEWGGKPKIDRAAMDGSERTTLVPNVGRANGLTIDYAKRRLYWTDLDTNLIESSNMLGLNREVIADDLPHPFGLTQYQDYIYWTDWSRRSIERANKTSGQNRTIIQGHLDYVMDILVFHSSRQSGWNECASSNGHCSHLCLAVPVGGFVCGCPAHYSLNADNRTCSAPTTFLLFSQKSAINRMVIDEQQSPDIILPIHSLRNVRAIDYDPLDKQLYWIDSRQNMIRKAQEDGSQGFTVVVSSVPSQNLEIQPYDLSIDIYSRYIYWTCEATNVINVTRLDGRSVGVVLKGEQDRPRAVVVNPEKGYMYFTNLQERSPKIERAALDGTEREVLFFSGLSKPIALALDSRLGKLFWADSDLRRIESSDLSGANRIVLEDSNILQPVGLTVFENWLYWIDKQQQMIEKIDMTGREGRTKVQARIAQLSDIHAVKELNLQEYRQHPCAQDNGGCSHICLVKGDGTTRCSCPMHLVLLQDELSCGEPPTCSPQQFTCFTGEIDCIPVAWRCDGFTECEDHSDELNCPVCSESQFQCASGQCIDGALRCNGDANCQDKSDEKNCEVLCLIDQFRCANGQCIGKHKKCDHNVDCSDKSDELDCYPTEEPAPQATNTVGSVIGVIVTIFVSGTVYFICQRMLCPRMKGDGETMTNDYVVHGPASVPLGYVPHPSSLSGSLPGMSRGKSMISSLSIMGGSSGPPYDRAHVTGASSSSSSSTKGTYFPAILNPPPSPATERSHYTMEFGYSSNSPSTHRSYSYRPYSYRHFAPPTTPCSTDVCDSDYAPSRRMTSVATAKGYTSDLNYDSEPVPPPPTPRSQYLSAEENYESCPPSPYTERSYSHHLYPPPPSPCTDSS
Briefly: dual-color axial line-scanning fluorescence cross-correlation spectroscopy (axial lsFCS); live NCI-H1703 cells stably expressing LRP6-mCherry, ligand in conditioned medium at varied concentrations, 37°C, 5% CO2, 60 s scans, with background and photobleaching correction, fit of Γ(CL) with Equation 5. As to conditions: partners not purified.

Test [3] addresses T1, LRP6-mCherry, stably expressed in …. The test can be described thus: dual-color axial line-scanning fluorescence cross-correlation spectroscopy (axial lsFCS); the same data as a3 (NCI-H1703 stably expressing LRP6-mCherry), analysed without prior background correction of the intensity time traces. As to conditions: partners not purified.
Test [4] addresses T2, LRP6-mCherry, transiently expressed in HEK293T cells (human, UniProt O75581 20-1613).
T2 construct: lipoprotein-receptor related protein 6 (LRP6), human; plasmid pCS2+hLRP6-mCherry (Dörlich et al., 2015); Receptor density 370 ± 150 or 1080 ± 470 per µm^2 in the two series; MesD was co-transfected; also called hLRP6-mCherry; lipoprotein-receptor related protein 6; source: HEK293T, transiently transfected (pCS2+hLRP6-mCherry, with MesD 1:6), on live cells; not shown: mCherry, C-terminal, kept
The test can be described thus: dual-color axial line-scanning fluorescence cross-correlation spectroscopy (axial lsFCS); live HEK293T cells transiently expressing the receptor, ligand in conditioned medium at varied concentrations (0.01-220 nM), 37°C, 5% CO2, 60 s scans, fit of Γ(CL) with Equation 5. Conditions: partners not purified.

The target in test [5] is T3, endogenously tagged LRP6-mCherry in CRISPR/Cas9 edited NCI-H1703 cells (human (endogenous in NCI-H1703), UniProt O75581 20-1613).
T3 construct: lipoprotein-receptor related protein 6 (LRP6), human, expressed from the endogenous locus of NCI-H1703 cells; Untagged LRP6 from the unedited allele is also present; receptor density 18 ± 9 per µm^2; source: NCI-H1703, CRISPR/Cas9 edited at the endogenous LRP6 locus (exon 23), heterozygous clone, on live cells
T3 sequence (O75581 20-1613): as above
Briefly: dual-color axial line-scanning fluorescence cross-correlation spectroscopy (axial lsFCS); live CRISPR/Cas9 edited NCI-H1703 cells with endogenously tagged LRP6, ligand in conditioned medium at varied concentrations, 37°C, 5% CO2, 60 s scans, fit of Γ(CL) with Equation 5. Conditions: partners not purified.

The target in test [6] is T4, endogenously tagged LRP6-tdTomato in CRISPR/Cas9 edited NCI-H1703 cells (human (endogenous in NCI-H1703), UniProt O75581 20-1613).
T4 construct: lipoprotein-receptor related protein 6 (LRP6), human, expressed from the endogenous locus of NCI-H1703 cells; Untagged LRP6 from the unedited allele is also present; receptor density 21 ± 15 per µm^2; source: NCI-H1703, CRISPR/Cas9 edited at the endogenous LRP6 locus (exon 23), heterozygous clone, on live cells; not shown: tdTomato (after the linker AS from the NheI site), C-terminal, kept
T4 sequence (O75581 20-1613): as above
The test is described as above. Conditions: partners not purified.

Test [7] deals with T2, LRP6-mCherry, transiently expressed in …. The test can be described thus: time-lapse spinning disk confocal imaging of ligand fluorescence on the cell membrane; dissociation after two washing steps, frames every 300 s for up to 3 hr, average of 50 cells; kon from a regression of apparent rate coefficients at 3.5 and 7 nM with this koff fixed; 37°C, 5% CO2. Conditions: partners not purified.

Test [8] deals with T1, LRP6-mCherry, stably expressed in …. The test can be described thus: dual-color axial line-scanning fluorescence cross-correlation spectroscopy (axial lsFCS); live NCI-H1703 cells stably expressing LRP6-mCherry, ligand in conditioned medium at varied concentrations, 37°C, 5% CO2, 60 s scans, with background and photobleaching correction, fit of Γ(CL) with Equation 5. As to conditions: partners not purified. The source holds these as a separate data set.

For test [9], the target named is (Xenopus laevis) xKremen2-mCherry (Xenopus laevis). Briefly: dual-color axial line-scanning fluorescence cross-correlation spectroscopy (axial lsFCS); live NCI-H1703 cells transiently expressing the receptor (xKremen2-mCherry without or with unlabeled LRP6; apparent affinity with LRP6), ligand in conditioned medium at varied concentrations, 37°C, 5% CO2, 60 s scans, fit of Γ(CL) with Equation 5.

The target in test [10] is xKremen2-mCherry co-expressed with unlabeled LRP6 (Xenopus laevis | human) (UniProt O75581). The description is as above.
Test [11] deals with T5, LRP6-mCherry, transiently expressed in NCI-H1703 cells (human, UniProt O75581 20-1613).
T5 construct: lipoprotein-receptor related protein 6 (LRP6), human; plasmid pCS2+hLRP6-mCherry (Dörlich et al., 2015); Same construct as m4 in another cell line; receptor density 140 ± 80 per µm^2; also called hLRP6-mCherry; source: NCI-H1703, transiently transfected (pCS2+hLRP6-mCherry, with MesD 1:6), on live cells; not shown: mCherry, C-terminal, kept
T5 sequence (O75581 20-1613): as above
Described as above. As to conditions: partners not purified.

In test [12] the target is T6, LRP6-tdTomato, transiently expressed in NCI-H1703 cells (human, UniProt O75581 20-1613).
T6 construct: lipoprotein-receptor related protein 6 (LRP6), human; pCS2+hLRP6-tdTomato, made by replacing the mCherry ORF of pCS2+hLRP6-mCherry; Receptor density 106 ± 52 per µm^2; also called hLRP6-tdTomato; source: NCI-H1703, transiently transfected (pCS2+hLRP6-tdTomato, with MesD 1:6), on live cells; not shown: tdTomato, C-terminal, kept
T6 sequence (O75581 20-1613): as above
The test is described as above. Conditions: partners not purified.

Test [13] deals with T2, LRP6-mCherry, transiently expressed in …. The test can be described thus: time-lapse spinning disk confocal imaging of ligand fluorescence on the cell membrane; association: HEK293T cells expressing LRP6-mCherry, conditioned medium with DKK1-eGFP at different concentrations, 37°C, 5% CO2, frames every 100 s for 1 hr, linear regression of apparent rate coefficients; the authors call such measurements on individual cells highly unreliable. As to conditions: partners not purified.

T2 sequence (O75581 20-1613): as above
Chain of LRP6-mCherry, stably expressed in NCI-H1703 cells (human) (O75581 20-1613): as above

As for “(Xenopus laevis) xKremen2-eGFP (receptor)”, in test [1], the bound fraction of LRP6 receptors FR, corrected assuming an eGFP maturation yield of 0.9 was 0.26; the bound fraction of xKremen2 receptors FG, corrected assuming an mCherry maturation yield of 0.5 was determined as 0.18; the percent of LRP6 receptors co-diffusing with xKremen2 came out at 25%; the percent of xKremen2 receptors co-diffusing with LRP6 amounted to 15%.

B1: human Dickkopf2 fused to eGFP (DKK2-eGFP) (ligand, UniProt Q9UBU2 34-259, looked up)
chain: KLNSIKSSLGGETPGQAANRSAGMYQGLAFGGSKKGKNLGQAYPCSSDKECEVGRYCHSPHQGSSACMVCRRKKKRCHRDGMCCPSTRCNNGICIPVTESILTPHIPALDGTRHRDRNHGHYSNHDLGWQNLGRPHTKMSHIKGHEGDPCLRSSDCIEGFCCARHFWTKICKPVLHQGEVCTKQRKKGSHGLEIFQRCDCAKGLSCKVWKDATYSSKARLHVCQKI
notes: Dickkopf2 (DKK2), human; also called hDKK2-eGFP
Consider B1, for which, in test [2], the Kd amounted to 0.26 ± 0.04 nM.

B2: human Dickkopf1 fused to eGFP (DKK1-eGFP) (ligand, UniProt O94907 32-266, looked up)
chain: TLNSVLNSNAIKNLPPPLGGAAGHPGSAVSAAPGILYPGGNKYQTIDNYQPYPCAEDEECGTDEYCASPTRGGDAGVQICLACRKRRKRCMRHAMCCPGNYCKNGICVSSDQNHFRGEIEETITESFGNDHSTLDGYSRRTTLSSKMYHTKGQEGSVCLRSSDCASGLCCARHFWSKICKPVLKEGQVCTKHRRKGSHGLEIFQRCYCGEGLSCRIQKDHHQASNSSRLHTCQRH
notes: Dickkopf1 (DKK1), human; also called hDKK1-eGFP
Regarding B2, the Kd was found to be 0.1 ± 0.02 nM in test [3]; 0.49 ± 0.09 nM in test [4]; 0.09 ± 0.01 nM in test [5]; 0.1 ± 0.02 nM in [6]; 0.4 ± 0.1 nM in test [7]; 0.08 ± 0.01 nM in test [8]. For the same molecule, the Kd stood at 10.3 nM in test [9]; 0.54 nM in test [10]; 0.22 ± 0.02 nM in [11]; 0.22 ± 0.03 nM in [12]; 2.6 ± 0.1 nM in test [13]. For the same molecule, the results for the koff in test [7] and in test [13] were 0.00026 s⁻¹ and 0.0013 s⁻¹, respectively. Moreover, the results for the kon in test [7] and in test [13] were 670000 M⁻¹ s⁻¹ and 500000 M⁻¹ s⁻¹, respectively.

B3: human Dickkopf1 fused to eGFP and a SNAP-tag domain (DKK1-eGFP-SNAP) (ligand, UniProt O94907 32-266, looked up)
chain: TLNSVLNSNAIKNLPPPLGGAAGHPGSAVSAAPGILYPGGNKYQTIDNYQPYPCAEDEECGTDEYCASPTRGGDAGVQICLACRKRRKRCMRHAMCCPGNYCKNGICVSSDQNHFRGEIEETITESFGNDHSTLDGYSRRTTLSSKMYHTKGQEGSVCLRSSDCASGLCCARHFWSKICKPVLKEGQVCTKHRRKGSHGLEIFQRCYCGEGLSCRIQKDHHQASNSSRLHTCQRH
notes: Dickkopf1 (DKK1), human; made from pCS2+hDKK1-eGFP by adding a linker and the SNAP-tag gene; SNAP-tag domain is 19.4 kDa; also called hDKK1-eGFP-SNAP; source: conditioned medium
B3 displayed a Kd in test [4] of 0.46 ± 0.09 nM.

As usually defined, the koff is the first-order rate constant of dissociation. As a reminder, the kon is the second-order rate constant of association.

Values taken from publication PMC7289602, “Measuring ligand-cell surface receptor affinities with axial line-scanning fluorescence correlation spectroscopy” (eLife, 2020).
